Columns and labels:
[1] = molecular target: HA of A/California/04/2009 (CA04; H1N1pdm09) on virus particles (Influenza A virus A/California/04/2009 …, UniProt C3W5S1, strain); test: BLI
[2] = molecular target: Recombinant soluble HA of subtype H1 (A/California/07/2009, H1N1pdm09) (Influenza A virus A/California/07/2009 …, UniProt C3W5X2, strain); test: BLI
[3] = molecular target: Recombinant soluble HA of subtype H3 (A/Perth/16/2009, H3N2) (Influenza A virus A/Perth/16/2009 (H3N2), UniProt C6KNH7, strain); test: BLI
[4] = molecular target: Recombinant soluble HA of subtype H7 (A/Netherland/219/2003, H7N7) (Influenza A virus …, UniProt Q6VMK1); test: BLI
[5] = molecular target: HA of A/gull/Maryland/704/77 (H13), expressed in cells from pCAGGS (Influenza A virus …, UniProt P13103, strain); test: immunostaining of cells or tissue
[6] = molecular target: HA of A/turkey/Ontario/6118/68 (H8), expressed in cells from pCAGGS (Influenza A virus …, UniProt P03456, strain); test: immunostaining of cells or tissue
[7] = molecular target: HA of A/Singapore/1/57 (H2), expressed in cells from pCAGGS (Influenza A virus A/Singapore/1/1957 …, UniProt Q67333, strain); test: immunostaining of cells or tissue
[8] = molecular target: HA of A/turkey/Wisconsin/66 (H9), expressed in cells from pCAGGS (Influenza A virus …, UniProt P03457, strain); test: immunostaining of cells or tissue
[9] = molecular target: HA of A/duck/Memphis/546/74 (H11), expressed in cells from pCAGGS (Influenza A virus …, UniProt Q0A426, strain); test: immunostaining of cells or tissue
[10] = molecular target: HA of A/duck/Australia/341/83 (H15), expressed in cells from pCAGGS (Influenza A virus …, UniProt Q82565, strain); test: immunostaining of cells or tissue
[11] = molecular target: HA of A/duck/Czechoslovakia/56 (H4), expressed in cells from pCAGGS (Influenza A virus …, UniProt P19696, strain); test: immunostaining of cells or tissue
[12] = molecular target: HA of A/chicken/Germany/N/49 (H10), expressed in cells from pCAGGS (Influenza A virus …, UniProt P12581, strain); test: immunostaining of cells or tissue
[13] = molecular target: HA of A/mallard/Astrakhan/263/82 (H14), expressed in cells from pCAGGS (Influenza A virus …, UniProt P26136, strain); test: immunostaining of cells or tissue

B1: S9-1-10/5-1, recombinant monoclonal human IgG (IgG1, kappa) (antibody, V domains shown)
VH: QLHLQESGPGLLKPSATLSLTCTVSGGSMNNYYWSWVRQAPGKGLEWIGYIFHSGSTNYSPPLKSRVTISIDTATNQFFLRLNSVTAADTAVYYCARMSRGVFSSSRFFGLDVWGRGTAVAVSS
VL: EIVLTQSPATLSVSPGERATLSCRASQSVASNLAWYQQKPGQAPRLLISAASTRATDIPARFSGSGSGTEFTLTISSLQSEDFAVYYCQQYNNWLSFTFGPGTKVDMK
- binding result [1]: binds
- Kd [2]: 8.5 pM
- koff [2]: 6.7e-06 s⁻¹
- kon [2]: 790000 M⁻¹ s⁻¹
- Kd [3]: 34000 pM
- koff [3]: 0.002 s⁻¹
- kon [3]: 59000 M⁻¹ s⁻¹
- Kd [4]: 900 pM
- koff [4]: 0.00037 s⁻¹
- kon [4]: 410000 M⁻¹ s⁻¹
- binding result [5]: binds
- binding result [6]: binds
- binding result [7]: binds
- binding result [8]: binds
- binding result [9]: binds
- binding result [10]: binds
- binding result [11]: binds
- binding result [12]: binds
- binding result [13]: binds

— PMC5360590 (EBioMedicine, 2017)
